Laboratory results from paper PMC3597688 (Nucleic Acids Research, 2013).
Where a chain is given by its changes, count along the chain named. Numbers in names are those of the source. Where “and” joins values, the source holds several entries; their conditions need not be identical. Equal values may be shown once.

B1: ssoMCM F540A mutant (full length) (natural protein, Sulfolobus solfataricus, UniProt Q9UXG1 1-686, looked up)
chain: MEIPSKQIDYRDVFIEFLTTFKGNNNQNKYIERINELVAYRKKSLIIEFSDVLSFNENLAYEIINNTKIILPILEGALYDHILQLDPTYQRDIEKVHVRIVGIPRVIELRKIRSTDIGKLITIDGILVKVTPVKERIYKATYKHIHPDCMQEFEWPEDEEMPEVLEMPTICPKCGKPGQFRLIPEKTKLIDWQKAVIQERPEEVPSGQLPRQLEIILEDDLVDSARPGDRVKVTGILDIKQDSPVKRGSRAVFDIYMKVSSIEVSQKVLDEVIISEEDEKKIKDLAKDPWIRDRIISSIAPSIYGHWELKEALALALFGGVPKVLEDTRIRGDIHILIIGDPGTAKSQMLQFISRVAPRAVYTTGKGSTAAGLTAAVVREKGTGEYYLEAGALVLADGGIAVIDEIDKMRDEDRVAIHEAMEQQTVSIAKAGIVAKLNARAAVIAAGNPKFGRYISERPVSDNINLPPTILSRFDLIFILKDQPGEQDRELANYILDVHSGKSTKNIIDIDTLRKYIAYARKYVTPKITSEAKNLITDFAVEMRKKSSETPDSPILITPRQLEALIRISEAYAKMALKAEVTREDAERAINIMRLFLESVGVDMESGKIDIDTIMTGKPKSAREKMMKIIEIIDSLAVSSECAKVKDILKEAQQVGIEKSNIEKLLTDMRKSGIIYEAKPECYKKV
B2: ssoMCM G485P/G501P mutant (alpha5-linker mutant, full length) (natural protein, Sulfolobus solfataricus, UniProt Q9UXG1 1-686, looked up)
chain: B1 chain with G485P, G501P, A540F

Columns and labels:
[1] = molecular target: the molecule itself; test: negative-stain electron microscopy and electron tomography
SEC = molecular target: the molecule itself; test: SEC

Protein	stoichiometry N [1]	stoichiometry N (SEC)
B1	6 and 8	~3
B2	–	~3
